Article doi:10.1101/2021.12.14.472599
Where two headings read alike, the source gives them in different places.

How the values were obtained:
[1] = biological target: TwinStrep-CcSir2 protein (TwinStrep-tag fused to the N-terminus of His6-CcSir2) (Caballeronia cordobensis); test: co-elution from a Heparin column with SDS-PAGE densitometry
GsSir2;GsAgo [2] = biological target: T1, GsSir2;GsAgo (Geobacter sulfurreducens Caccavo (ATCC …, UniProt Q74DF6;Q74DF5 1-587;1-473, |)); test: EMSA
GsSir2;GsAgo [3] = biological target: T1, GsSir2;GsAgo; test: EMSA; remark: listed apart in the source
GsSir2(D230A);GsAgo [4] = biological target: T2, GsSir2(D230A);GsAgo (Geobacter sulfurreducens Caccavo (ATCC …, UniProt Q74DF6;Q74DF5 1-587;1-473, D230A|)); test: EMSA
GsSir2APAZ;GsAgo = GsSir2APAZ;GsAgo (Geobacter sulfurreducens Caccavo (ATCC …, UniProt Q74DF6;Q74DF5 1-587;1-473, R440E;R442E;R517E;R525E;R528E;R531E|)); test: EMSA
GsSir2(D230A);GsAgo [5] = biological target: T2, GsSir2(D230A);GsAgo; test: EMSA; remark: listed apart in the source
GsSir2;GsAgo [6] = biological target: T1, GsSir2;GsAgo; test: EMSA; remark: listed apart in the source

Molecule | Kd (GsSir2;GsAgo [2]) [nM] | Kd (GsSir2;GsAgo [3]) [nM] | also measured
CcAgo protein (short pAgo of the CcSir2/Ago system) (natural protein) | – | – | stoichiometry N [1]: 1 Sir2:Ago
ATAATGGTTTCTTAGACGTCGTTTTAGAGCTGTGTTGTTTCG (ssDNA) [ssDNA (TK-49)] | 0.033 ± 0.016 | – | –
gDNA TK-49 + target ssDNA MZ-949 (dsDNA, 5'-phosphate on guide) DNA 1: ATAATGGTTTCTTAGACGTCGTTTTAGAGCTGTGTTGTTTCG DNA 2: CGAAACAACACAGCTCTAAAACGACGTCTAAGAAACCATTAT | – | 0.022 ± 0.005 | –
dsDNA (TK-49/MZ-949) (dsDNA) DNA 1: ATAATGGTTTCTTAGACGTCGTTTTAGAGCTGTGTTGTTTCG DNA 2: CGAAACAACACAGCTCTAAAACGACGTCTAAGAAACCATTAT | 51 ± 20 | – | –
gDNA TK-49 + target ssRNA MZ-1185 (DNA:RNA, 5'-phosphate on guide) DNA: ATAATGGTTTCTTAGACGTCGTTTTAGAGCTGTGTTGTTTCG RNA: CGAAACAACACAGCUCUAAAACGACGUCUAAGAAACCAUUAU | – | 0.252 ± 0.114 | –
ATAATGGTTTCTTAGACGTCGTTTTAGAGCTGTGTTGTTTCG (ssDNA, circularised by CircLigase II) [circular ssDNA (TK-49)] | 0.072 ± 0.018 | – | –
AUAAUGGUUUCUUAGACGUCGUUUUAGAGCUGUGUUGUUUCG (ssRNA) [ssRNA (TF-A)] | 0.042 ± 0.015 | – | –
dsRNA (TF-A/MZ-1185) (dsRNA) RNA 1: AUAAUGGUUUCUUAGACGUCGUUUUAGAGCUGUGUUGUUUCG RNA 2: CGAAACAACACAGCUCUAAAACGACGUCUAAGAAACCAUUAU | 73 ± 29 | – | –
gRNA TF-A + nsp-ssDNA MZ-589 (mixed, 5'-phosphate on guide) RNA: AUAAUGGUUUCUUAGACGUCGUUUUAGAGCUGUGUUGUUUCG DNA: GGAGATGGGAAGTCATTAGATGTAGAACTTGAATGGCAACGG | – | 0.42 ± 0.231 | –
gRNA TF-A + target ssDNA MZ-949 (DNA:RNA, 5'-phosphate on guide) RNA: AUAAUGGUUUCUUAGACGUCGUUUUAGAGCUGUGUUGUUUCG DNA: CGAAACAACACAGCTCTAAAACGACGTCTAAGAAACCATTAT | – | 0.02 ± 0.008 | Kd (GsSir2(D230A);GsAgo [4]): 0.038 ± 0.013 nM; binding result (GsSir2APAZ;GsAgo): no binding; Kd (GsSir2(D230A);GsAgo [5]): 0.14 ± 0.057 nM; Kd (GsSir2;GsAgo [6]): 0.079 ± 0.007 nM
gRNA TF-A + target ssRNA MZ-1185 (dsRNA, 5'-phosphate on guide) RNA 1: AUAAUGGUUUCUUAGACGUCGUUUUAGAGCUGUGUUGUUUCG RNA 2: CGAAACAACACAGCUCUAAAACGACGUCUAAGAAACCAUUAU | – | 0.205 ± 0.058 | Kd (GsSir2;GsAgo [6]): 0.567 ± 0.112 nM
RNA/DNA heteroduplex (TF-A/MZ-949) (DNA:RNA) RNA: AUAAUGGUUUCUUAGACGUCGUUUUAGAGCUGUGUUGUUUCG DNA: CGAAACAACACAGCTCTAAAACGACGTCTAAGAAACCATTAT | 4.31 ± 0.37 | – | –
